Measured values from the supplement of paper PMC9876800.

Tested on: peptide library, one residue held at a place counted from the S/T acceptor
Assay: relative phosphorylation of the sub-library (ratio to the mean residue at this position); higher = residue favoured
Procedure, shortened: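 Relative sub-library phosphorylation is a ratio to the mean residue at the same position. Purified recombinant kinases were incubated under kinase-specific conditions with biotinylated degenerate peptide sub-libraries, each fixing one residue at one position around a central Ser/Thr, using 50 μM peptide and 50 μM ATP spiked with γ-32P-ATP for 90 min. Spots captured on streptavidin membranes were phosphorimaged and quantified by densitometry.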

MAPK9, construct: Full length, human (from UniProt P45984)
relative phosphorylation
Settings	at +1	at +2	at +3	at +4	at -1	at -2	at -3	at -4	at -5
A fixed	0.338	0.988	1.43	1.17	1.16	2.09	1.24	1.17	1.14
D fixed	0.147	0.96	1.38	1.21	0.686	0.686	1.13	1.19	0.957
E fixed	0.151	0.694	1.34	1.27	0.862	0.379	1.19	1.09	0.869
F fixed	0.358	0.75	0.781	0.805	0.68	0.717	0.814	0.965	0.946
G fixed	0.646	1.33	1.53	1.32	1.28	0.653	1.21	1.14	1.15
H fixed	0.195	0.997	0.985	1.02	1	0.494	0.95	0.878	0.924
I fixed	0.433	1.24	0.638	0.879	0.695	1.28	0.76	0.861	0.801
K fixed	0.164	0.632	0.648	0.795	1.09	0.545	0.915	1.08	1.34
L fixed	0.462	1.18	0.879	0.787	1.37	2.05	1.08	1	0.923
M fixed	0.314	1.75	0.959	0.913	1.4	1.28	0.93	1.04	0.801
N fixed	0.17	1.07	0.973	0.934	0.854	0.494	1.07	0.886	0.94
P fixed	12.4	0.721	0.886	1.66	1.28	2.58	1.16	1.24	1.38
Q fixed	0.193	1.06	1.01	1.04	1.36	0.741	1.07	1.06	1.02
R fixed	0.187	0.803	0.908	0.802	1.25	0.635	1.09	0.938	1.02
V fixed	0.339	1.4	0.845	0.869	0.76	1.32	0.768	0.365	0.833
W fixed	0.303	0.69	0.951	0.817	0.533	0.543	0.729	1.02	0.886
Y fixed	0.239	0.745	0.859	0.712	0.743	0.511	0.875	1.09	1.07
pThr fixed	0.495	2.23	1.06	1.16	0.432	0.933	0.957	0.975	0.996
pTyr fixed	0.347	0.987	1.07	0.719	0.468	0.429	0.778	0.808	0.836
